Test results taken from doi:10.1101/2021.09.06.459192 (bioRxiv, 2021).

Target: Rrp5 full length, recombinant (Rrp5_FL) (S. cerevisiae, UniProt Q05022 1-1729)
Experiment: pull-down

Sequence of Rrp5 full length, recombinant (Rrp5_FL) (Q05022 whole entry): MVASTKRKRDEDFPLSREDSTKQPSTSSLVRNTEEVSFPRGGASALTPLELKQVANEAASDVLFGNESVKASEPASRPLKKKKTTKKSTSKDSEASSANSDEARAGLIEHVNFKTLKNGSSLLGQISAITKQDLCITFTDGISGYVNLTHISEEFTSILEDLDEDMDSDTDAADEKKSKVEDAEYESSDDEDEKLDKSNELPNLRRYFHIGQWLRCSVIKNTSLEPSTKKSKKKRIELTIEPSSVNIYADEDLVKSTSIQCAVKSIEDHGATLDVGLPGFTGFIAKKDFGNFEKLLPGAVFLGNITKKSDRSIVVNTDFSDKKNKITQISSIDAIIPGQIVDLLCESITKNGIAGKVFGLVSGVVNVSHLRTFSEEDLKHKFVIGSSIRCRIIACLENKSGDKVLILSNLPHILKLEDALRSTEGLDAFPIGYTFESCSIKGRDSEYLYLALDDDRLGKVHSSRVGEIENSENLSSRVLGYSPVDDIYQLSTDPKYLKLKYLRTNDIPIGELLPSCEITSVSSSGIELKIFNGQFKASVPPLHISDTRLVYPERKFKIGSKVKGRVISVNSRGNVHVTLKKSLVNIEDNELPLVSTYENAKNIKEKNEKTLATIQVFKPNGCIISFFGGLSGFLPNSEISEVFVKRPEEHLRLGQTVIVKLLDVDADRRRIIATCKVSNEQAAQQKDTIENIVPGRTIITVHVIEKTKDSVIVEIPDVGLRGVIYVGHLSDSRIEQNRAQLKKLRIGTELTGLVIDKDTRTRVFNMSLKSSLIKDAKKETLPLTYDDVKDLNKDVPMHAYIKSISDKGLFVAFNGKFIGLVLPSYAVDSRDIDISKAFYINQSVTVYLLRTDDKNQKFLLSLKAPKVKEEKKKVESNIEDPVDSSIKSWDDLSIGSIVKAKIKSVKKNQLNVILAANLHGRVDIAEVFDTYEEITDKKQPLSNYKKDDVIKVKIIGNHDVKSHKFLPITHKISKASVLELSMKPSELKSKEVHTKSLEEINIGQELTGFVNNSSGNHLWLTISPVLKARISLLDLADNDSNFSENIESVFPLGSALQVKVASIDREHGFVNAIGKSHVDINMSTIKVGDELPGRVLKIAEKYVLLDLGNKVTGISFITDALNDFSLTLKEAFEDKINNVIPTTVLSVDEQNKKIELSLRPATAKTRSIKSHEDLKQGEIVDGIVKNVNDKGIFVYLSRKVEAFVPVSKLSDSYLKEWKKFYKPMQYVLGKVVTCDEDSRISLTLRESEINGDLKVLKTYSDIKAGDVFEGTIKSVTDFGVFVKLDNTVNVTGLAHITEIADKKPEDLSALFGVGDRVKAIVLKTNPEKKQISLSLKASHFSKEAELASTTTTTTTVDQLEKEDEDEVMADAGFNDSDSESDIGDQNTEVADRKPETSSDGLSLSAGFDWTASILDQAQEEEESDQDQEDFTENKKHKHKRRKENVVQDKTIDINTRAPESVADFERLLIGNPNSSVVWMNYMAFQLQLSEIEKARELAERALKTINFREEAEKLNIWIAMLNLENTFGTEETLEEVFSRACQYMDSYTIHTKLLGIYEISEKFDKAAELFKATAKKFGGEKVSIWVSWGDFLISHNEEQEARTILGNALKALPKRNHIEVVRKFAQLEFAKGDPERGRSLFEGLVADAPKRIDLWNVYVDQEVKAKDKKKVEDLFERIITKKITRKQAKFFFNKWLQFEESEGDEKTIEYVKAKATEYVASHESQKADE

binding result	Binder
binds	MBP-Rrp36, recombinant (natural protein, S. cerevisiae, UniProt Q12481 1-300, looked up) MSYYFKNLKPDLNSDVEEDDGNLLESIMANKSKREIDEQESSDDELKTLSFGSLKKAETVIDEEDFKDTKPVHKKPITTTYREESFDEDEDSEDQSDEDAGFFEEDSEDETHHGQKVPKKKSKHAPVEQSSKKRVPRVRNIPGLEIPRNKRSNLYQDIRFDKSTGKALDSSIIRKRYQFLDEYREKEIDELQKLLQERKFLSKIDQGEREEMEQRLKSMKSRLQSMKNKDLEREILKEYENDMNKNNNTRYHLKKSEKRKVVQKWKFDHMKAKQREKVMERKRKKRLGKEFKQFEFHNRR
binds	MBP-Krr1, recombinant (natural protein, S. cerevisiae, UniProt P25586 1-316, looked up) MVSTHNRDKPWDTDDIDKWKIEEFKEEDNASGQPFAEESSFMTLFPKYRESYLKTIWNDVTRALDKHNIACVLDLVEGSMTVKTTRKTYDPAIILKARDLIKLLARSVPFPQAVKILQDDMACDVIKIGNFVTNKERFVKRRQRLVGPNGNTLKALELLTKCYILVQGNTVSAMGPFKGLKEVRRVVEDCMKNIHPIYHIKELMIKRELAKRPELANEDWSRFLPMFKKRNVARKKPKKIRNVEKKVYTPFPPAQLPRKVDLEIESGEYFLSKREKQMKKLNEQKEKQMEREIERQEERAKDFIAPEEEAYKPNQN
